Laboratory results from patent US20220025008A1 (FAPON BIOTECH, published 2022).

T1: Recombinant NT antigen (N-terminal pro-brain natriuretic peptide, NT-proBNP) (human, UniProt P16860 27-102)
T1 construct: domain: N-terminal pro-brain natriuretic peptide (NT-proBNP); also called recombinant NT protein; N-terminal pro-B-type natriuretic peptide
T1 sequence (looked up): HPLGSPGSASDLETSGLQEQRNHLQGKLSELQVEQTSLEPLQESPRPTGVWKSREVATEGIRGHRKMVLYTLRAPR


Molecular target: T1, Recombinant NT antigen (N-terminal …)
Assay: indirect ELISA, KD calculated from half-max OD at 4 coating concentrations
In short: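 Plates coated overnight at 4 °C with recombinant NT antigen at 3, 1.5, 0.75 or 0.375 μg/ml, blocked with 20% BSA. Antibody, 2-fold dilutions from 1000 to 0.977 ng/ml, was incubated 30 min at 37 °C, then detected with HRP anti-IgG, OD450/630. KD was derived from half-max OD across coating levels.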

Row | Kd | Binder
1 | 2.06 nM | Mutation 1-53 (antibody) heavy: QVRLQESGPSQVKPAQTLSLTCAISGFSVTTYYVDWVRHTPGKPPEWLAQMTKDGNAVHNPTVRSRLSITRDTSKSQVFLKLTGVTTEDTAVYYCVRGVIDFGPGLLVTVSSASTTPPKVYPLTSCCGDTSSSIVTLGCLVSSYMPEPVTVTWNSGALTSGVHTFPAILQSSGLYSLSSVVTVPASTSGAQTFICNVAHPASSTKVDKRVEPGCPDPCKHCRCPPPELPGGPSVFIFPPKPKDTLTISGTPEVTCVVVDVGQDDPEVQFSWFVDNVEVRTARTKPREEQFNSTFRVVSALPIQHQDWTGGKEFKCKVHNEGLPAPIVRTISRTKGQAREPQVYVLAPPQEELSKSTLSVTCLVTGFYPDYIAVEWQKNGQPESEDKYGTTTSQLDADGSYFLYSRLRVDKNSWQEGDTYACVVMHEALHNHYTQKSISKPPGK light: QAVLTQPSSVSRSLGQTVSITCSGSSDNVGFGDYINWFQLIPGSAPKTLIFGAYSRVRGVPDRFSGSRSGNTATLTINSLQAEDEADYYCGSGNSRNYVFGSGTRLTVLSQPKSAPSVTLFPPSKEELDTNKATVVCLISDFYPGSVNVVWKADGSTINQNVKTTQASKQSNSKYAASSYLTLTGSEWKSKSSYTCEVTHEGSTVTKTVKPSECS
2 | 2.16 nM | Mutation 1-50 (antibody, V domains shown) VH: QVRLQESGPSQVKPAQTLSLTCAISGFSLTTYYVDWVRHTPGKPPEWLAQMTKDGNAVHQPTLRSRLSITRDTSKSQVFLKLTGVTTEDTAVYYCVRGLIDWGPGLLVTVSS VL: QAVLTQPSSVSRSLGQTVSITCSGSSDQVGFGDYINWFQLIPGSAPKTLIFGATSRVRGVPDRFSGSRSGNTATLTINSLQAEDEADYYCGSANSRGGYVFGSGTRLTVLS

The remaining lines, values behind:

Row | Binder | Kd
3 | Mutation 1-47 (antibody) heavy: QVRLQESGPSQVKPAQTLSLTCAISGFSITTYYVDWVRHTPGKPPEWLAQMTKDGNAVHQPTIRSRLSITRDTSKSQVFLKLTGVTTEDTAVYYCVRGVIDFGPGLLVTVSSASTTPPKVYPLTSCCGDTSSSIVTLGCLVSSYMPEPVTVTWNSGALTSGVHTFPAILQSSGLYSLSSVVTVPASTSGAQTFICNVAHPASSTKVDKRVEPGCPDPCKHCRCPPPELPGGPSVFIFPPKPKDTLTISGTPEVTCVVVDVGQDDPEVQFSWFVDNVEVRTARTKPREEQFNSTFRVVSALPIQHQDWTGGKEFKCKVHNEGLPAPIVRTISRTKGQAREPQVYVLAPPQEELSKSTLSVTCLVTGFYPDYIAVEWQKNGQPESEDKYGTTTSQLDADGSYFLYSRLRVDKNSWQEGDTYACVVMHEALHNHYTQKSISKPPGK light: QAVLTQPSSVSRSLGQTVSITCSGSSDQVGFGDYVNWFQLIPGSAPKTLIFGASSRVRGVPDRFSGSRSGNTATLTINSLQAEDEADYYCGSPNSRNYVFGSGTRLTVLSQPKSAPSVTLFPPSKEELDTNKATVVCLISDFYPGSVNVVWKADGSTINQNVKTTQASKQSNSKYAASSYLTLTGSEWKSKSSYTCEVTHEGSTVTKTVKPSECS | 2.79 nM
4 | Mutation 1-48 (antibody, V domains shown) VH: QVRLQESGPSQVKPAQTLSLTCAISGFSLTTYYIDWVRHTPGKPPEWLAQMTKDGNAVHQPTIRSRLSITRDTSKSQVFLKLTGVTTEDTAVYYCVRGIIDWGPGLLVTVSS VL: QAVLTQPSSVSRSLGQTVSITCSGSSDQVGFGDYVNWFQLIPGSAPKTLIFGATSRIRGVPDRFSGSRSGNTATLTINSLQAEDEADYYCGSPNSRGGYVFGSGTRLTVLS | 2.02 nM
